The labels stand for the following.
B1: Recombinant Human UCH-L5/UCH37 (protein)
chain: MTGNAGEWCLMESDPGVFTELIKGFGCRGAQVEEIWSLEPENFEKLKPVHGLIFLFKWQPGEEPAGSVVQDSRLDTIFFAKQVINNACATQAIVSVLLNCTHQDVHLGETLSEFKEFSQSFDAAMKGLALSNSDVIRQVHNSFARQQMFEFDTKTSAKEEDAFHFVSYVPVNGRLYELDGLREGPIDLGACNQDDWISAVRPVIEKRIQKYSEGEIRFNLMAIVSDRKMIYEQKIAELQRQLAEEEPMDTDQGNSMLSAIQSEVAKNQMLIEEEVQKLKRYKIENIRRKHNYLPFIMELLKTLAEHQQLIPLVEKAKEKQNAKKAQETK
B2: UCH-L3, human recombinant (protein)
chain: MEGQRWLPLEANPEVTNQFLKQLGLHPNWQFVDVYGMDPELLSMVPRPVCAVLLLFPITEKYEVFRTEEEEKIKSQGQDVTSSVYFMKQTISNACGTIGLIHAIANNKDKMHFESGSTLKKFLEESVSMSPEERARYLENYDAIRVTHETSAHEGQTEAPSIDEKVDLHFIALVHVDGHLYELDGRKPFPINHGETSDETLLEDAIEVCKKFMERDPDELRFNAIALSAA
B3: Recombinant Human USP2 Catalytic Domain (protein)
chain: NSKSAQGLAGLRNLGNTCFMNSILQCLSNTRELRDYCLQRLYMRDLHHGSNAHTALVEEFAKLIQTIWTSSPNDVVSPSEFKTQIQRYAPRFVGYNQQDAQEFLRFLLDGLHNEVNRVTLRPKSNPENLDHLPDDEKGRQMWRKYLEREDSRIGDLFVGQLKSSLTCTDCGYCSTVFDPFWDLSLPIAKRGYPEVTLMDCMRLFTKEDVLDGDEKPTCCRCRGRKRCIKKFSIQRFPKILVLHLKRFSESRIRTSKLTTFVNFPLRDLDLREFASENTNHAVYNLYAVSNHSGTTMGGHYTAYCRSPGTGEWHTFNDSSVTPMSSSQVRTSDAYLLFYELASPPSRM

The target in the series is K6UbKMRC011.
Regarding B1, the “cleavage by ubiquitin cleavage enzymes, SDS-PAGE analysis (10 mg/L enzyme, 37 C, 12 hours)” value (shortened to “cleavage by ubiquitin cleavage enzymes”) is “the refolded K6UbKMRC011 was cleaved by the ubiquitin cleavage enzymes shown in Table 2 and correctly separated into K6Ub and KMRC011”.

As for B2, the “cleavage by ubiquitin cleavage enzymes” value is “the refolded K6UbKMRC011 was cleaved by the ubiquitin cleavage enzymes shown in Table 2 and correctly separated into K6Ub and KMRC011”.

As for B3, the “cleavage by ubiquitin cleavage enzymes” value is “the refolded K6UbKMRC011 was cleaved by the ubiquitin cleavage enzymes shown in Table 2 and correctly separated into K6Ub and KMRC011”.

These data come from patent publication US20190127434.
